Experimental findings from patent publication EP1410040B1 are described below.

The target of test [1] is full length STAT6 (human) (UniProt P42226). As to the kind of experiment: cell-based or functional assay.
For test [2], the target named is GST-STAT6 aa 677-847 protein (human). Kind of test: ELISA: 500 ng GST-STAT6 (677-847) coated, 250 ng His-NCoA-1 added, detected by Penta-His and anti-mouse-HRP; average of three experiments, s.d. 0,036. (An ELISA detects its analyte on a solid surface through an enzyme-linked reagent.)
Sequence of GST-STAT6 aa 677-847 protein (human) (chain, as listed by the source limits assumed): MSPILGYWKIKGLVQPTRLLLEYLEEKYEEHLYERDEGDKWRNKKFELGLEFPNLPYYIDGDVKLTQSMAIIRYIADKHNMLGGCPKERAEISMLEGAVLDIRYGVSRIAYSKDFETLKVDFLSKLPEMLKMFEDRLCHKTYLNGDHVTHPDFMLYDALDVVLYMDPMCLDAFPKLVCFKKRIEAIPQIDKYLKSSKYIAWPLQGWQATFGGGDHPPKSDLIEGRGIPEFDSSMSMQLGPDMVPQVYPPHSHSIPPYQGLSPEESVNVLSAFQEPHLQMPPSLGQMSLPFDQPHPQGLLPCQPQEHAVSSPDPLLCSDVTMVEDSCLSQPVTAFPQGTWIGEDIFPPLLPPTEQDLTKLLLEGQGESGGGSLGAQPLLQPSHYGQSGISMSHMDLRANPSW

Sequence of UniProt P42226 (P42226 2-847): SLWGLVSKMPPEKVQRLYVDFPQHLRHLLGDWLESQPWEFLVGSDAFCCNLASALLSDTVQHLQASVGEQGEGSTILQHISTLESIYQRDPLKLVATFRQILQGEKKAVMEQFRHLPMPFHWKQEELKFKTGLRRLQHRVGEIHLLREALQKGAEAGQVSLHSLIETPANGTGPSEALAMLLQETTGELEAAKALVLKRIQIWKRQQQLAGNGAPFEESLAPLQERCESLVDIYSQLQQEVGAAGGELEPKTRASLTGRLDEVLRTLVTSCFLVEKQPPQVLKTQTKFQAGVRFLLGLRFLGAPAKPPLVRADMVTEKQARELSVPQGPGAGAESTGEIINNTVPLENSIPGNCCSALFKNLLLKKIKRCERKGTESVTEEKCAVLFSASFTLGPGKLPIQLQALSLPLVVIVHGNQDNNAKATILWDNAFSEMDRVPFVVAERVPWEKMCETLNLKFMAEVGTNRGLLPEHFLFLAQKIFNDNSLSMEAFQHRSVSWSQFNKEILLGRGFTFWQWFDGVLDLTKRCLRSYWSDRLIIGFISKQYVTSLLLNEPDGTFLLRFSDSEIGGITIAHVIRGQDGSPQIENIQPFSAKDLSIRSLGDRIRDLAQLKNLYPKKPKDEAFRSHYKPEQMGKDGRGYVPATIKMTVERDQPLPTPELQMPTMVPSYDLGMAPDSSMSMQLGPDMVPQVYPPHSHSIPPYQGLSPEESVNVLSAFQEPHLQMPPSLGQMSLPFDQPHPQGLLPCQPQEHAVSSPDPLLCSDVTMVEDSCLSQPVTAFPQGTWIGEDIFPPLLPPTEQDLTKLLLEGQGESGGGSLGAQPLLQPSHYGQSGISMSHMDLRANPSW

As to “NCoA-1 (nuclear coactivator 1), full length (from UniProt P70365 2-1447)”, the IL-4 induced luciferase reporter gene expression (multimerized STAT6 response elements) in HepG2 cells in test [1] is less than 3 fold.

B1: His-tagged NCoA-1 aa 212-463 (protein)
chain: MHHHHHHSSGLVPRGSGMKETAAAKFERQHMDSPDLGTDDDDKAMGYLWIQEACQRYEVMQCFTVSQPKSIQEDGEDFQSCLICIARRLPRPPAITGVESFMTKQDTTGKIISIDTSSLRAAGRTGWEDLVRKCIYAFFQPQGREPSYARQLFQEVMTRGTASSPSYRFILNDGTMLSAHTKCKLCYPQSPDMQPFIMGIHIIDREHSGLSPQDDSNSGMSIPRINPSVNPGISPAHGVTRSSTLPPSNNNMVSARVNRQQSSDLNSSSSHTNSSNNQGNFGCSPGNQIVANVALNQGQAGSLEHHHHHH
In test [2], B1 showed an Extinction 493 nm of 0.795.
